# Measured values reported in patent publication US20210292416A1 (Eli Lilly, published 2021).
# B1: Antibody p-7A5 (the parental antibody of the anti-CD137 arm of Antibody A) (antibody, V domains shown)
# VH: QVQLVQSGAEVKKPGSSVKVSCKASGGTFSSYAISWVRQAPGQGLEWMGGIIPIFGTANYAQKFQGRVTITADESTSTAYMELSSLRSEDTAVYYCARDLMTTAPGTYFDLWGRGTLVTVSS
# VL: AIRMTQSPPSLSASVGDRVTITCQASQDIGNSLGWYQQKPGKAPKLVIFDASDLETGVPSRFSGSGSGTDFSLTISSLQPEDFATYYCQQGNSFPLTFGQGTRLEIK
# notes: Parental monoclonal anti-CD137 antibody; also called Antibody 7A5; parental antibody 7A5
# B2: BMS20H4.9 (antibody, V domains shown)
# VH: QVQLQQWGAGLLKPSETLSLTCAVYGGSFSGYYWSWIRQSPEKGLEWIGEINHGGYVTYNPSLESRVTISVDTSKNQFSLKLSSVTAADTAVYYCARDYGPGNYDWYFDLWGRGTLVTVSS
# VL: EIVLTQSPATLSLSPGERATLSCRASQSVSSYLAWYQQKPGQAPRLLIYDASNRATGIPARFSGSGSGTDFTLTISSLEPEDFAVYYCQQRSNWPPALTFGGGTKVEIKR
# B3: Antibody p-11444 (the parental antibody of the anti-PD1 arm of Antibody A) (antibody, V domains shown)
# VH: QVQLVQSGAEVKKPGSSVKVSCKASGGTFSSYAISWVRQAPGQGLEWMGLIIPMFDTAGYAQKFQGRVAITVDESTSTAYMELSSLRSEDTAVYYCARAEHSSTGTFDYWGQGTLVTVSS
# VL: DIQMTQSPSSVSASVGDRVTITCRASQGISSWLAWYQQKPGKAPKLLISAASSLQSGVPSRFSGSGSGTDFTLTISSLQPEDFATYYCQQANHLPFTFGGGTKVEIK
# notes: Parental monoclonal anti-PD-1 antibody
# Columns and labels:
# [1] = molecular target: T1, human CD137-ECD-C121S-Fc mutant Q67R (human, UniProt Q07011 24-186); assay: point ELISA on coated CD137-Fc mutant, mean of normalised absorbance over eight concentrations
# T1 construct: Mutant of human CD137-ECD-C121S-Fc; not shown: Fc part
# Excerpt: (§1) The CD137-Fc mutants are generated using the standard protocol of a commercially-available site directed mutagenesis kit (Quickchange II kit, […]). The wild-type and mutant CD137-Fc proteins are expressed and purified. […] To determine the impact of a mutation on the binding of the antibodies, a point ELISA assay against CD137-Fc wild type and mutants is utilized. The wells of a 96-well Immulon 4HBX ELISA plate are coated overnight with 50 nanograms of human CD137-ECD-C121S-Fc or its mutants in 100 microliters of PBS, pH 7.2 with mild agitation at 4° C. After blocking (with 5% BSA in PBST) and washing, a five-fold dilution eight-point series (100 to 0.00128 nanomolar) of the designated antibody is added and incubated with mild agitation at room temperature for 1 h. The wells are washed and a HRP-conjugated secondary antibody (1:10000 dilution of HRP-conjugated goat anti-Fab antibody (Jackson ImmunoResearch Laboratories) is added and incubated at room temperature following standard protocol. TMB peroxidase chromogenic substrate and stop solution are used according to manufacturer's instruction for visualization and detection of signals. Absorbance readings for each concentration point is normalized by the absorbance of the wild-type interaction. For each mutant, the mean of the normalized ratio for the eight concentrations is determined.
# [2] = molecular target: T2, human CD137-ECD-C121S-Fc mutant N42S (human, UniProt Q07011 24-186); assay: as above
# T2 construct: Mutant of human CD137-ECD-C121S-Fc; not shown: Fc part
# Excerpt: as §1
# [3] = molecular target: T3, human CD137-ECD-C121S-Fc mutant G98K (human, UniProt Q07011 24-186); assay: as above
# T3 construct: Mutant of human CD137-ECD-C121S-Fc; not shown: Fc part
# Excerpt: as §1
# [4] = molecular target: T4, human CD137-ECD-C121S-Fc mutant S100T (human, UniProt Q07011 24-186); assay: as above
# T4 construct: Mutant of human CD137-ECD-C121S-Fc; not shown: Fc part
# Excerpt: as §1
# [5] = molecular target: T5, human CD137-ECD-C121S-Fc mutant G98Q (human, UniProt Q07011 24-186); assay: as above
# T5 construct: Mutant of human CD137-ECD-C121S-Fc; not shown: Fc part
# Excerpt: as §1
# [6] = molecular target: T6, human CD137-ECD-C121S-Fc mutant A97P (human, UniProt Q07011 24-186); assay: as above
# T6 construct: Mutant of human CD137-ECD-C121S-Fc; not shown: Fc part
# Excerpt: as §1
# [7] = molecular target: T7, human CD137-ECD-C121S-Fc mutant P27L (human, UniProt Q07011 24-186); assay: as above
# T7 construct: Mutant of human CD137-ECD-C121S-Fc; not shown: Fc part
# Excerpt: as §1
# [8] = molecular target: T8, human CD137-ECD-C121S-Fc mutant K115Q (human, UniProt Q07011 24-186); assay: as above
# T8 construct: Mutant of human CD137-ECD-C121S-Fc; not shown: Fc part
# Excerpt: as §1
# [9] = molecular target: T9, human CD137-ECD-C121S-Fc mutant K114E (human, UniProt Q07011 24-186); assay: as above
# T9 construct: Mutant of human CD137-ECD-C121S-Fc; not shown: Fc part
# Excerpt: as §1
# [10] = molecular target: T10, human CD137-ECD-C121S-Fc mutant M101R (human, UniProt Q07011 24-186); assay: as above
# T10 construct: Mutant of human CD137-ECD-C121S-Fc; not shown: Fc part
# Excerpt: as §1
# [11] = molecular target: T11, human CD137-ECD-C121S-Fc mutant Q104K (human, UniProt Q07011 24-186); assay: as above
# T11 construct: Mutant of human CD137-ECD-C121S-Fc; not shown: Fc part
# Excerpt: as §1
# [12] = molecular target: T12, human CD137-ECD-C121S-Fc mutant Q67V (human, UniProt Q07011 24-186); assay: as above
# T12 construct: Mutant of human CD137-ECD-C121S-Fc; not shown: Fc part
# Excerpt: as §1
# [13] = molecular target: T13, human CD137-ECD-C121S-Fc mutant D63N (human, UniProt Q07011 24-186); assay: as above
# T13 construct: Mutant of human CD137-ECD-C121S-Fc; not shown: Fc part
# Excerpt: as §1
# human CD137 (on cells) = human CD137 (on cells) (human, UniProt Q07011 24-255); assay: cell-based or functional assay
# human PD-1 (on cells) [14] = molecular target: T14, human PD-1 (on cells) (human, UniProt Q15116 25-288); assay: cell-based or functional assay
# human CD137-ECD = molecular target: T15, human CD137-ECD (human, UniProt Q07011 24-186); assay: SPR (Biacore 2000) at 37 C, antibody captured on Protein A, soluble CD137-ECD as analyte, steady state affinity fit
# T15 construct: In-house generated soluble ECD
# [15] = molecular target: T16, human PD-1-extracellular domain (ECD) (human, UniProt Q15116 25-170); assay: SPR (Biacore 2000) at 37 C, antibody captured on Protein A, soluble PD-1-ECD as analyte, 1:1 Langmuir fit, mean ± SD
# T16 construct: also called human PD-1-ECD; PD-1-ECD
# Protocol: Samples are diluted in HBS-EP+(10 mM HEPES, 150 mM NaCl, 0.05% Tween-20, pH 7.6) running buffer (Teknova Cat #H8022). Protein A (5 mg/mL, Calbiochem Cat #539202) is immobilized on flow cells 1 to 4 of a CM5 senor chip (GE Healthcare Cat #29149604) at a level of 3000 to 4000 response units (RUs) using amine coupling chemistry. Briefly, the surfaces of all four flow cells are activated by injecting a 1:1 mixture of EDC/NHS for 7-minutes at 10 μL/minute. Protein A is diluted to 200 μg/mL in 10 mM acetate, pH 4.5 buffer and immobilized for approximately 3000-4000 RUs onto all four flow cells by 7-minute injection at flow rate of 10 μL/minute. Unreacted sites are blocked with a 7-minute injection of 1M Ethanolamine-HCl pH 8.5 at 10 μL/minute. Five 30-second injections of glycine pH 1.5 at 10 μL/minute are used to remove any non-covalently associated protein.
# Binding is evaluated using multi-cycle kinetics by an antibody capture method. […] All analyte concentrations are determined utilizing monomeric molecular weight (MW) values. Association rates (kₒₙ) and dissociation rates (koff) for PD-1-ECD are evaluated using double referencing by flow-cell 1 reference subtraction in addition to 0 nM blank subtraction and fit to “1:1 (Langmuir) binding” model in the BIAevaluation software version 4.1. […]
# human PD-1 (on cells) [16] = molecular target: T14, human PD-1 (on cells); assay: cell-based or functional assay; remark: listed apart in the source
# Chain of human CD137 (on cells) (Q07011 24-255 limits assumed): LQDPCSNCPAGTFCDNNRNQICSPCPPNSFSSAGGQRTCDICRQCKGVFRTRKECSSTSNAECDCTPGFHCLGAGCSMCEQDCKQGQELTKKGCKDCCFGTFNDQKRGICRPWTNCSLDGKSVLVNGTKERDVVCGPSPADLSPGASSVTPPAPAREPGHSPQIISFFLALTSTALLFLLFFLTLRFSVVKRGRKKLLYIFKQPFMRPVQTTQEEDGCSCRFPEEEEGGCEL
# T14 sequence (Q15116 25-288 limits assumed): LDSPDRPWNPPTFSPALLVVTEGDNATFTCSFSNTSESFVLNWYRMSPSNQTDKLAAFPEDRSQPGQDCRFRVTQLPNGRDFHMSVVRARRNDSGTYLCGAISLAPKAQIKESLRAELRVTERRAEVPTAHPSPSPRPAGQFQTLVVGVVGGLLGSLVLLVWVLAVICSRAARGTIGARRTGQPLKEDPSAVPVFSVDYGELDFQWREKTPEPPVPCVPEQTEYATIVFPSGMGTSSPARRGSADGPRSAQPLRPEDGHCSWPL
# T3 sequence (Q07011 24-186 G98K/C121S): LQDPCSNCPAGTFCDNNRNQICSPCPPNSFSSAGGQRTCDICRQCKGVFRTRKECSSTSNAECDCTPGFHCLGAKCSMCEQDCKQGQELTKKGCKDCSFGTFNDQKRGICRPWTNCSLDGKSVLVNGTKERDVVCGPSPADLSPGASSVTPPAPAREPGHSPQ
# T9 sequence (Q07011 24-186 K114E/C121S): as the sequence (Q07011 24-186 G98K/C121S) above, with K75G, K91E counted along it
# T5 sequence (Q07011 24-186 G98Q/C121S): as the sequence (Q07011 24-186 G98K/C121S) above, with K75Q counted along it
# T10 sequence (Q07011 24-186 M101R/C121S): as the sequence (Q07011 24-186 G98K/C121S) above, with K75G, M78R counted along it
# T7 sequence (Q07011 24-186 P27L/C121S): as the sequence (Q07011 24-186 G98K/C121S) above, with P4L, K75G counted along it
# T11 sequence (Q07011 24-186 Q104K/C121S): as the sequence (Q07011 24-186 G98K/C121S) above, with K75G, Q81K counted along it
# T12 sequence (Q07011 24-186 Q67V/C121S): as the sequence (Q07011 24-186 G98K/C121S) above, with Q44V, K75G counted along it
# T13 sequence (Q07011 24-186 D63N/C121S): as the sequence (Q07011 24-186 G98K/C121S) above, with D40N, K75G counted along it
# T4 sequence (Q07011 24-186 S100T/C121S): as the sequence (Q07011 24-186 G98K/C121S) above, with K75G, S77T counted along it
# T1 sequence (Q07011 24-186 Q67R/C121S): as the sequence (Q07011 24-186 G98K/C121S) above, with Q44R, K75G counted along it
# T8 sequence (Q07011 24-186 K115Q/C121S): as the sequence (Q07011 24-186 G98K/C121S) above, with K75G, K92Q counted along it
# T6 sequence (Q07011 24-186 A97P/C121S): as the sequence (Q07011 24-186 G98K/C121S) above, with A74P, K75G counted along it
# T16 sequence (Q15116 25-170 limits assumed): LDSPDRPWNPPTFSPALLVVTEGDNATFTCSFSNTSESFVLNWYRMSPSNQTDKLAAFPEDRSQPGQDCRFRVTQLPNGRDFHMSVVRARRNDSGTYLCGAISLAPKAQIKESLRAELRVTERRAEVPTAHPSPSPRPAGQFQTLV
# T2 sequence (Q07011 24-186 N42S/C121S): as the sequence (Q07011 24-186 G98K/C121S) above, with N19S, K75G counted along it
# T15 sequence (Q07011 24-186 limits assumed): as the sequence (Q07011 24-186 G98K/C121S) above, with K75G, S98C counted along it
binder,measurement,setting,value
B1,% of binding relative to wild-type hCD137,[1],100%
same,% of binding relative to wild-type hCD137,[2],100%
same,% of binding relative to wild-type hCD137,[3],85%
same,% of binding relative to wild-type hCD137,[4],100%
same,% of binding relative to wild-type hCD137,[5],100%
same,% of binding relative to wild-type hCD137,[6],15%
same,% of binding relative to wild-type hCD137,[7],100%
same,% of binding relative to wild-type hCD137,[8],25%
same,% of binding relative to wild-type hCD137,[9],20%
same,% of binding relative to wild-type hCD137,[10],100%
same,% of binding relative to wild-type hCD137,[11],100%
same,% of binding relative to wild-type hCD137,[12],100%
same,% of binding relative to wild-type hCD137,[13],100%
same,fold induction of NFkB-Luc luciferase signal at 0.01 nM antibody,human CD137 (on cells),0.98 fold
same,fold induction of NFkB-Luc luciferase signal at 0.04 nM antibody,human CD137 (on cells),0.88 fold
same,fold induction of NFkB-Luc luciferase signal at 0.15 nM antibody,human CD137 (on cells),0.94 fold
same,fold induction of NFkB-Luc luciferase signal at 0.59 nM antibody,human CD137 (on cells),1.07 fold
same,fold induction of NFkB-Luc luciferase signal at 2.34 nM antibody,human CD137 (on cells),1.66 fold
same,fold induction of NFkB-Luc luciferase signal at 9.38 nM antibody,human CD137 (on cells),2.29 fold
same,fold induction of NFkB-Luc luciferase signal at 37.50 nM antibody,human CD137 (on cells),2.72 fold
same,fold induction of NFkB-Luc luciferase signal at 150.00 nM antibody,human CD137 (on cells),2.6 fold
same,IFN-γ mean EC50 in allogeneic MLR assay (3 donor pairs),human PD-1 (on cells) [14],> 32 nM
same,IL-2 mean EC50 in allogeneic MLR assay (3 donor pairs),human PD-1 (on cells) [14],> 32 nM
same,Kd,human CD137-ECD,341 nM
B2,% of binding relative to wild-type hCD137,[1],100%
same,% of binding relative to wild-type hCD137,[3],100%
same,% of binding relative to wild-type hCD137,[4],100%
same,% of binding relative to wild-type hCD137,[5],100%
same,% of binding relative to wild-type hCD137,[6],100%
same,% of binding relative to wild-type hCD137,[7],85%
same,% of binding relative to wild-type hCD137,[8],100%
same,% of binding relative to wild-type hCD137,[9],100%
same,% of binding relative to wild-type hCD137,[10],100%
same,% of binding relative to wild-type hCD137,[11],100%
same,% of binding relative to wild-type hCD137,[12],100%
same,% of binding relative to wild-type hCD137,[13],100%
B3,Kd,[15],3.1 nM
same,IFN-γ mean EC50 in allogeneic MLR assay (3 donor pairs),human PD-1 (on cells) [14],88 pM
same,IL-2 mean EC50 in allogeneic MLR assay (3 donor pairs),human PD-1 (on cells) [14],0.238 nM
same,"EC50, NFAT-Luc reporter assay (Jurkat PD-1+CD137+NFAT-Luc2 cells with CHO-K1 PD-L1+TCR activator cells)",human PD-1 (on cells) [16],1.4 nM
